Source: US12545899B2, “Luciferase enzymes for use with thermostable luciferins in bioluminescent assays” (Promega Corporation, priority 2018, dated 2026)
Numbering of substitutions follows the chain as printed. Names may count otherwise.

B1: MK0110: SEQ ID NO: 77; H244W (protein)
chain: MADKNILYGPEPFYPLEDGTAGEQMFDALSRYAAIPGCIALTNAHTKENVLYEEFLKLSCRLAESFKKYGLKQNDTIAVCSENSLQFFLPVIASLYLGIIVAPVNDKYVERELIHSLGIVKPRIVFCSKNTFQKVLNVKSKLKSIETIIILDLNEDLGGYQCLNNFISQNSDSNLDVKKFKPYSFNRDDQVASIMFSSGTTGLPKGVMLTHKNIVARFSIAKDPTFGDAINPTSAILTVIPFHWGFGMMTTLGYFTCGFRVVLMHTFEEKLFLQSLQDYKVESTLLVPTLMAFLAKSALVEKYDFPHLKEIASGGAPLSKEIGEMVKKRFKLNFVRQGYGLTEATSAVLITPKGDAKPGSTGKIVPLHAVKVVDPTTGKILGPNEPGELYFKGPMKMKGYYNNEEATKAIIDNDGWLRSGDIAYYDNDGHFYIVDRLKSLIKYKGYQVAPAEIEGILLQHPYIVDAGVTGIPDEAAGELPAAGVVVQTGKYLNEQIVQDYVASQVSTAKWLRGGVKFLDEIPKGSTGKIDRKVLRQMLEKHTNGHHHHHHHH
B2: MK0113: SEQ ID NO: 80; T344A (protein)
chain: B1 chain with S193A, P306S
B3: MK0112: SEQ ID NO: 79; S306P (protein)
chain: B1 chain with S193A, F305L
B4: MK0114: SEQ ID NO: 81; T344M (protein)
chain: B1 chain with S193A, A344T
B5: MK0111: SEQ ID NO: 78; L305F (protein)
chain: B1 chain with S193A, W244H
B6: MK0115: SEQ ID NO: 82; I396K (protein)
chain: B1 chain with S193A, K396I
B7: MK0116: SEQ ID NO: 83; I396L (protein)
chain: B1 chain with S193A, D228N
B8: MK0156: SEQ ID NO: 121; H244W+S193A+N228D+L305F+S306P+I109V+C38R+F55I+Y108F+A316W+Y339M+T342S+V348I+C257R+T289S+S313T+K353R (protein)
chain: MADKNILYGPEPFYPLEDGTAGEQMFDALSRYAAIPGRIALTNAHTKENVLYEEILKLSCRLAESFKKYGLKQNDTIAVCSENSLQFFLPVIASLYLGIIVAPVNDKFVERELIHSLGIVKPRIVFCSKNTFQKVLNVKSKLKSIETIIILDLNEDLGGYQCLNNFISQNSDSNLDVKKFKPYSFNRDDQVAAIMFSSGTTGLPKGVMLTHKNIVARFSIAKDPTFGDAINPTSAILTVIPFHWGFGMMTTLGYFTCGFRVVLMHTFEEKLFLQSLQDYKVESALLVPSLMAFLAKSALVEKYDFPHLKEIASGGWPLSKEIGEMVKKRFKLNFVRQGMGLSETTSAILITPRGDAKPGSTGKIVPLHAVKVVDPTTGKILGPNEPGELYFKGPMIMKGYYNNEEATKAIIDNDGWLRSGDIAYYDNDGHFYIVGRRKSLIKYKGYQVAPAEIEGILLQHPYIVDAGVTGIPDEAAGELPAAGVVVQTGKYLNEQIVQDYVASQVSTAKWLRGGVKFLDEIPKGSTGKIDRKVLRQMLEKHTNGHHHHHHHH
B9: MK0158: SEQ ID NO: 123; H244W+S193A+N228D+L305F+S306P+I109V+C38R+F55I+Y108F+A316W+Y339M+T342S+V348I+C257R+T284A+S313T+K353R+D435G (protein)
chain: B8 chain with C257R, A284T, S313T, R353K, W510R
B10: MK0157: SEQ ID NO: 122; H244W+S193A+N228D+L305F+S306P+I109V+C38R+F55I+Y108F+A316W+Y339M+T342S+V348I+T284A+T289S+K353R+D435G+L437R (protein)
chain: B8 chain with C257R, S289T, S313T, R437L
B11: MK0159: SEQ ID NO: 124; H244W+S193A+N228D+L305F+S306P+I109V+C38R+F55I+Y108F+A316W+Y339M+T342S+V348I+T284A+T289S+S313T+W510R (protein)
chain: B8 chain with C257R, S313T, W510R

Tests used:
[1] = Effect of individual mutations: maximum luminescence with CS0333; assay type: biochemical; conditions: for Vmax (RLU) with CS0333: 10 fM to 1 mM CS0333, Detection Reagent (DR) buffer
Method: Experiments were also conducted to evaluate and compare the activities of the various luciferase enzyme variants, including the effects of individual amino acid mutations. To evaluate the effect of individual mutations on luciferase enzyme variants, 0.005 mg/ml luciferase enzyme variant was mixed with 1 mM ATP+10 fM to 1 mM CS0333 in Detection Reagent (DR) buffer.

[2] = Differential scanning fluorimetry (DSF) analysis; assay type: physicochemical; conditions: Table 9A
How it was run: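 Thermal melt with 5× final Sypro Orange: ramp 1° C/min from 30 to 95° C, reading each 60 s, derivative of fluorescence plotted by temperature. Luciferase variants were in 20 mM HEPES pH 7.5, 200 mM NaCl, 1 mM EDTA; other enzymes in 50 mM HEPES pH 7.5, 100 mM NaCl, 2 mM EDTA.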

[3] = Luminescence at 1 mM CS0280 (Table 11); assay type: biochemical; conditions: 1 mM substrate, 1 mM ATP
From the text: (§1) Tables 10 and 11 include representative results of kinetic analysis of the thermostable variants with D/L luciferin, CS0333, and CS0280. […] MK0135 and MK0137 have amino acid substitutions that improve thermostability relative to MK0133 and MK0134, respectively, while retaining activity on the luciferin analogs CS0333 and CS0280.

[4] = Luminescence at 1 mM CS0333 (Table 11); assay type: biochemical; conditions: 1 mM substrate, 1 mM ATP
From the text: as §1

[5] = Kinetic analysis of thermostable variants with CS0333 (Tables 13, 14); assay type: biochemical; conditions: 2 mM ATP
From the text: (§2) Tables 13 and 14 include representative results of kinetic analysis of the thermostable variants with D/L luciferin, CS0333, and CS0280. The panel of enzyme variants highlight amino acid substitutions that further improve upon MK0137 in maximum luminescence (Vmax) or Km in different buffers with the different substrates tested (D/L-luciferin, CS0333, and CS0280). In particular, enzyme variants MK0151 and MK153 show improvements relative to MK0137 across multiple buffers with multiple substrates.

[6] = Kinetic analysis of thermostable variants with CS0280 (Tables 13, 14); assay type: biochemical; conditions: 2 mM ATP
From the text: as §2

[7] = Luminescence at 1 mM D/L-luciferin (Table 11); assay type: biochemical; conditions: 1 mM substrate, 1 mM ATP
From the text: as §1

[8] = Kinetic analysis of thermostable variants with D/L-luciferin (Tables 13, 14); assay type: biochemical; conditions: 2 mM ATP
From the text: as §2

Molecule	Vmax (RLU) with CS0333 [1]	DSF Tm (° C.) [2]	Vmax (RLU) CS0280 BrightGlo Buffer [3]	Vmax (RLU) CS0280 Detection Reagent Buffer [3]	Vmax (RLU) CS0333 BrightGlo Buffer [4]	Vmax (RLU) CS0333 Detection Reagent Buffer [4]	Km ([5]; BrightGlo Buffer)	Vmax (RLU) ([5]; BrightGlo Buffer)	Km ([5]; Detection Reagent Buffer)	Vmax (RLU) ([5]; Detection Reagent Buffer)	Km ([6]; BrightGlo Buffer)	Vmax (RLU) ([6]; BrightGlo Buffer)	Km ([6]; Detection Reagent Buffer)	Vmax (RLU) ([6]; Detection Reagent Buffer)	Vmax (RLU) D/L-luciferin BrightGlo Buffer [7]	Vmax (RLU) D/L-luciferin Detection Reagent Buffer [7]	Km ([8]; BrightGlo Buffer)	Vmax (RLU) ([8]; BrightGlo Buffer)	Km ([8]; Detection Reagent Buffer)	Vmax (RLU) ([8]; Detection Reagent Buffer)	also measured
B1	9,534 RLU	80 °C																			improvement of maximum luminescence with CS0333 above background ([1]; single point mutation introduced into the Ppe variant, DR buffer): ~5 fold
B2	1,948 RLU	71 °C																			
B3	1,232 RLU	80 °C																			
B4	1,030 RLU	70 °C																			
B5	1,166 RLU	79 °C																			
B6	2,120 RLU	67 °C																			
B7	7,428 RLU	73 °C																			
B8			753,523 RLU	16,392 RLU	828,634 RLU	377,642 RLU	7.16 µM	793,473 RLU	116 µM	174,991 RLU	9.12 µM	378,264 RLU	1210 µM	21,620 RLU	796,344 RLU	173,238 RLU	0.0613 µM	1,244,361 RLU	0.373 µM	144,242 RLU	
B9			1,523,240 RLU	41,712 RLU	4,043,790 RLU	1,508,370 RLU	14.6 µM	1,546,728 RLU	20.8 µM	524,381 RLU	2.94 µM	426,927 RLU	568 µM	39,068 RLU	3,261,120 RLU	1,086,510 RLU	0.109 µM	2,509,334 RLU	0.451 µM	365,701 RLU	
B10			3,598,730 RLU	159,336 RLU	4,827,260 RLU	3,810,820 RLU	4.51 µM	2,835,770 RLU	18.7 µM	515,775 RLU	4.49 µM	951,258 RLU	631 µM	87,011 RLU	573,187 RLU	75,012 RLU	0.1 µM	590,903 RLU	0.27 µM	32,485 RLU	
B11			2,094,150 RLU	110,050 RLU	6,850,630 RLU	4,630,740 RLU	14.7 µM	1,528,708 RLU	20.9 µM	523,610 RLU	2.78 µM	439,625 RLU	602 µM	40,925 RLU	688,326 RLU	106,195 RLU	0.107 µM	2,363,790 RLU	0.444 µM	369,822 RLU	
